{"source": "paper PMC6208348", "key": {"[1]": {"biological_target": "DnaJ-A1-pTyr381 ∆C peptide (human) (UniProt P31689)", "test": "FP"}, "EGFR-pTyr1086": {"biological_target": "EGFR-pTyr1086", "test": "FP"}, "EGFR-pTyr954": {"biological_target": "EGFR-pTyr954", "test": "FP"}, "Shc1-pTyr239": {"biological_target": "Shc1-pTyr239", "test": "FP"}, "Shc1-pTyr317": {"biological_target": "Shc1-pTyr317", "test": "FP"}, "[2]": {"biological_target": "DnaJ-A1-pTyr381 ∆N peptide (human) (UniProt P31689)", "test": "FP"}, "mini peptide GGpYGG": {"biological_target": "mini peptide GGpYGG", "test": "fluorescence polarisation"}, "MidT-pTyr324": {"biological_target": "MidT-pTyr324", "test": "FP", "conditions": "natural protein"}, "VCP-pTyr805-tail7": {"biological_target": "VCP-pTyr805-tail7", "test": "FP"}}, "note": "Where two headings read alike, the source gives them in different places."}
{"substance": "L. pneumophila LeSH2", "values": [{"measurement": "Kd", "setting": "[1]", "result": 1.09, "unit": "µM"}, {"measurement": "Kd", "setting": "EGFR-pTyr1086", "result": 31.4, "unit": "µM"}, {"measurement": "Kd", "setting": "EGFR-pTyr954", "result": 44.6, "unit": "µM"}, {"measurement": "Kd", "setting": "Shc1-pTyr239", "result": 3.66, "unit": "µM"}, {"measurement": "Kd", "setting": "Shc1-pTyr317", "result": 8.77, "unit": "µM"}]}
{"substance": "L. waltersii LeSH5 tandem SH2", "values": [{"measurement": "Kd", "setting": "[1]", "result": 28.7, "unit": "µM"}, {"measurement": "Kd", "setting": "[2]", "result": 15, "unit": "µM"}, {"measurement": "Kd", "setting": "EGFR-pTyr1086", "result": 33.5, "unit": "µM"}, {"measurement": "Kd", "setting": "Shc1-pTyr239", "result": 6.17, "unit": "µM"}, {"measurement": "Kd", "setting": "Shc1-pTyr317", "result": 13.8, "unit": "µM"}]}
{"substance": "L. longbeachae LeSH (natural protein)", "values": [{"measurement": "Kd", "setting": "mini peptide GGpYGG", "result": 3.6, "unit": "µM"}]}
{"substance": "L. dumoffii LeSH1a", "values": [{"measurement": "Kd", "setting": "[1]; natural protein", "result": "> 50", "unit": "µM"}, {"measurement": "Kd", "setting": "[2]; natural protein", "result": "> 50", "unit": "µM"}, {"measurement": "Kd", "setting": "MidT-pTyr324", "result": "> 50", "unit": "µM"}, {"measurement": "Kd", "setting": "Shc1-pTyr239; natural protein", "result": "> 50", "unit": "µM"}, {"measurement": "Kd", "setting": "Shc1-pTyr317; natural protein", "result": "> 50", "unit": "µM"}, {"measurement": "Kd", "setting": "VCP-pTyr805-tail7; natural protein", "result": "> 50", "unit": "µM"}]}
{"substance": "L. dumoffii LUSH (natural protein)", "values": [{"measurement": "Kd", "setting": "mini peptide GGpYGG", "result": 0.38, "unit": "µM"}]}
{"substance": "L. anisa LeSH2b (Lani_WP_019234638)", "values": [{"measurement": "Kd", "setting": "[1]; natural protein", "result": 16.5, "unit": "µM"}, {"measurement": "Kd", "setting": "[2]; natural protein", "result": 22.6, "unit": "µM"}, {"measurement": "Kd", "setting": "EGFR-pTyr1086; natural protein", "result": "> 50", "unit": "µM"}, {"measurement": "Kd", "setting": "EGFR-pTyr954; natural protein", "result": "> 50", "unit": "µM"}, {"measurement": "Kd", "setting": "Shc1-pTyr239; natural protein", "result": 38.1, "unit": "µM"}, {"measurement": "Kd", "setting": "Shc1-pTyr317; natural protein", "result": 40.6, "unit": "µM"}, {"measurement": "Kd", "setting": "VCP-pTyr805-tail7; natural protein", "result": 31.2, "unit": "µM"}]}
{"substance": "L. dumoffii LeSH2", "values": [{"measurement": "Kd", "setting": "EGFR-pTyr1086; natural protein", "result": 14.7, "unit": "µM"}, {"measurement": "Kd", "setting": "Shc1-pTyr239; natural protein", "result": 2.46, "unit": "µM"}, {"measurement": "Kd", "setting": "Shc1-pTyr317; natural protein", "result": 9.35, "unit": "µM"}, {"measurement": "Kd", "setting": "VCP-pTyr805-tail7; natural protein", "result": 9.1, "unit": "µM"}]}
{"substance": "L. pneumophila DoSH C-SH2", "values": [{"measurement": "Kd", "setting": "[2]", "result": 31.9, "unit": "µM"}, {"measurement": "Kd", "setting": "EGFR-pTyr1086", "result": 12.5, "unit": "µM"}]}
{"substance": "L. anisa LeSH2a (Lani_0711)", "values": [{"measurement": "Kd", "setting": "EGFR-pTyr954; natural protein", "result": 7.98, "unit": "µM"}, {"measurement": "Kd", "setting": "Shc1-pTyr239; natural protein", "result": 3.05, "unit": "µM"}, {"measurement": "Kd", "setting": "VCP-pTyr805-tail7; natural protein", "result": 2.53, "unit": "µM"}]}
{"substance": "L. anisa LeSH1b (Lani_2495)", "values": [{"measurement": "Kd", "setting": "[1]; natural protein", "result": "> 50", "unit": "µM"}, {"measurement": "Kd", "setting": "[2]; natural protein", "result": "> 50", "unit": "µM"}, {"measurement": "Kd", "setting": "Shc1-pTyr239; natural protein", "result": "> 50", "unit": "µM"}, {"measurement": "Kd", "setting": "Shc1-pTyr317; natural protein", "result": "> 50", "unit": "µM"}, {"measurement": "Kd", "setting": "VCP-pTyr805-tail7; natural protein", "result": "> 50", "unit": "µM"}]}
{"substance": "Src SH2 TrM (superbinder)", "values": [{"measurement": "Kd", "setting": "VCP-pTyr805-tail7", "result": 1.2, "unit": "µM"}]}
{"substance": "L. dumoffii LeSH2 (natural protein)", "values": [{"measurement": "Kd", "setting": "mini peptide GGpYGG", "result": 14.7, "unit": "µM"}]}
